Several values for one entry are separate records, joined by “and”; a condition that tells them apart may be missing. Identical values can stand only once.
Biological target: Synaptotagmin 2 K60A expressed in PC12 or HEK 293 cells (UniProt P29101)
Test: immunostaining of cells or tissue

Chain of UniProt P29101 (P29101 whole entry K60A): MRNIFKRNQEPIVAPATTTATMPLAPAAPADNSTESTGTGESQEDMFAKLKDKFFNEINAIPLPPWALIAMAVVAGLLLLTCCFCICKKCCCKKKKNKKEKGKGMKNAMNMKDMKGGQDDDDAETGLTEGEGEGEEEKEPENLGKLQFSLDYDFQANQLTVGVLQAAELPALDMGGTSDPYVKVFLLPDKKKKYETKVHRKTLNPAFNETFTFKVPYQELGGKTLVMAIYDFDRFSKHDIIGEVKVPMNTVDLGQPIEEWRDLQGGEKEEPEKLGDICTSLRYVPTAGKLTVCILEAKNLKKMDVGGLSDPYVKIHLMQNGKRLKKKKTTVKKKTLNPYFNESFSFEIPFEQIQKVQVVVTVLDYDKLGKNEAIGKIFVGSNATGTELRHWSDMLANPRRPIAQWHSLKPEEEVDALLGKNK

With “Botulinum neurotoxin serotype B (B1 Okra strain) with non-toxic accessory proteins (complex)” the decrease of BoNT/B binding against SYT2-WT was 64% and 69%.

— paper doi:10.1101/2021.10.18.464377
